Laboratory results reported in the DeepSol protein solubility set.

assay: soluble on expression in E. coli; label from the status in PepcDB or PDB records

| Sequence | soluble on expression in E. coli |
| --- | --- |
| MKAYWIAHVDVTDPQQYSEYTQRAPAAFQLFGGKFLARGGRSEAIEGRATPQRTVIIEFESYEQAVACYHSPQYQNAMSHRQGAAKAEIVIVEGQP | not soluble |
| MKCIESLGKTVDEAVKKALSELKVTEDKVEIKVIDEGSKGLLNIIGKREAKVKVTLKTDYIDEVRTFLRKVFEDMNLVIEIKIKEIGNDLFVNLFGKNIGLLIGYRGETLDSLQYLVNLVANKNHADGKYKRVILDTENYRAKREETLKRLALKISKRVKEEKSPFKLEPMNPYERRVIHSALQNDKYVRTYSEGEEPHRRVVVELKKS | not soluble |
| MKCYFRSFDAGIGDCNIIRLVKNEGEQYVIMVDCGSYTEPLKEYLQNALHNHIDLLIATHIDGDHIQGIATMLKKHEGLTVGEIWYNCYKRTKGAEYIELNDQQKAILKQIQKALPVEFDAINYREITATQGKTLAQTILCNEKFKGVWKTEYITSNTEDFDIPGGFGKIVFLAPRQEALKAIENKFKEAFDKYFMQAWNESIENVEELQELLIRLVDAYQDKFGGKQISAKNKPVYNVAFVRKQAKEEGADDSDTNCSSIAFMLECGEHRIAMLGDAFADIIEETIDNKYKDQAKPMECDAIKVSHHGSNGNSSKTLLDRINSHIYFIPGGKGEKYPAWGTFGRIAEKHKDDQAKLIVFSRQCTITEKMNGLNEEVKRELGVETIITEQEYELFEW | not soluble |
| MKDLLTRRFVLNSKEVREGDVFVAVKGKRFDGHDFIDEALRNGAYAIIAERKTVNSDRIFLVESSVDTLAKLAREKLGNFSGTVVGVTGSSGKTTTKEILYNLLKNKRSVFKTPGNMNTEYGLPLSILNDYKGEEILVLEMAASRPGDIAHLCKIAPPDVAVLLNVGSAHLEFFGTRERIMETKMEIIKHSKENAIAVTLFDDPDLRKEVPRYRNTLFFGKEGGDSVLKDWWYYEGSTIAEFEAFDSLFTVKLSGYWNGGQLLNIAASLCVMRTLGETVDIFDLASLKTVPGRFNVREKKGVLIVDDTYNASPEAFQTSIEALLRFPGKKFAVVGAMKELGERSKEFHEELGERLNVLDGVYVFLSEPEAEWIKSKKIILKSDDPEKIAKDLATRVKKGDVVLFKASRAVRIERVLEMFEKELEKR | soluble |
| MKDPLLNSLIYVSRYYGLANSPEALVNGLPLSDGKLTPFLLPRAAERAGLVAKENRAELEKISSLILPAILVLKGGDSCVLNSINMETREAEVTTLESGMVPISIPLEDLLEQYTGRYFLVKKQFR | soluble |
| MKDRFELVSKYQPQGDQPKAIEKLVKGIQEGKKHQTLLGATGTGKTFTVSNLIKEVNKPTLVIAHNKTLAGQLYSEFKEFFPNNAVEYFVSYYDYYQPEAYVPQTDTFIEKDASINDEIDKLRHSATSALFERRDVIIIASVSCIYGLGSPEEYREMVVSLRTEMEIERNELLRKLVDIQYARNDIDFQRGTFRVRGDVVEIFPASRDEHCVRVEFFGDEIERIREVDALTGEILGDRDHVAIFPASHFVTRAEKMEKAIQNIEKELEEQLKVMHENGKLLEAQRLEQRTRYDLEMMREMGFCSGIENYSRHLTLRPPGSTPYTLLDYFPDDFMIVVDESHVTIPQVRGMFNGDQARKQVLVDHGFRLPSALDNRPLRFEEFEKHMHNIVYVSATPGPYEIEHTDEMVEQIIRPTGLLDPLIDVRPIEGQIDDLIGEIQARIERNERVLVTTLTKKMSEDLTDYLKEIGIKVNYLHSEIKTLERIEIIRDLRLGKYDVLVGINLLREGLDIPEVSLVAILDADKEGFLRSERSLIQTIGRAARNAEGRVIMYADKITKSMEIAINETKRRREQQERFNEEHGITPKTINKEIRDVIRATVAAEDKAEYKTKAAPKLSKMTKKERQKVVEQMEHEMKEAAKALDFERAAELRDLLLELKAEG | soluble |
| MKDTVMMKLNTKESMAQIDGQTIYFKQIGEGKPPLLMLHGFGGSSDGFSDIYPELARDHTIIAVDILGFGRSSKPVDFQYSFPAQVNLYYKLMKKLGYNQFAVLGHSMGGEMSLNLAYLYPDAVTHLILADATGIESFQQKESYEVPPLSTDLQTVTEITKYNKNEVKNSRDDKEHYDQLTKMRERRIAMEADKIKVPTLIIWGRHDKSVSWKNGELYHGLFANSTFHIIEKGYHAPFRQEPIEFMEYVQAFFAKHPQ | not soluble |
| MKDVAKLLKILPPTFNETVLLPVQTQLKEHYPRTVSLVKNLVSPLPEEYRFLTEVLLSVLLSGEISETIPYQALLVAHGESTATSIQAVANKLCGTYIFDAINMPLTSSVRDIVAEVKEWLSQRDTSQGVIMLVDMGSLTQLYKSLKPQILGELLVINNLTTAYALEIGHQLMNEQLFYGIAKTAEKKFKTDVQYFEGFSVEKNIIVSSISGLDIAKQIKQICQKYLYTDIKVITLKYKDLVNTLDIANAEENYLKETSLILTTSYLDNHTNVASVNLLDMLDEDAGTQLMEPFQNLMHPNNIDSMINEFVHFFSKEGLSEKLEFLNPDVIIKQVENVTKNIEKRFDLTLSGKMKFNLMMHNALMVERTMLGVEDYEIPANLEELTINQKPFFQNAKNIFYTLEQFYRIEISNWELYVIYEILSSR | not soluble |
| MKDVVIVGALRTPIGCFRGALAGHSAVELGSLVVKALIERTGVPAYAVDEVILGQVLTAGAGQNPARQSAIKGGLPNSVSAITINDVCGSGLKALHLATQAIQCGEADIVIAGGQENMSRAPHVLTDSRTGAQLGNSQLVDSLVHDGLWDAFNDYHIGVTAENLAREYGISRQLQDAYALSSQQKARAAIDAGRFKDEIVPVMTQSNGQTLVVDTDEQPRTDASAEGLARLNPSFDSLGSVTAGNASSINDGAAAVMMMSEAKARALNLPVLARIRAFASVGVDPALMGIAPVYATRRCLERVGWQLAEVDLIEANEAFAAQALSVGKMLEWDERRVNVNGGAIALGHPIGASGCRILVSLVHEMVKRNARKGLATLCIGGGQGVALTIERDE | soluble |
| MKEFVHDYLAASVENEEEGGRMRWYPWHSAEYRFNHILNVVDIATKIARKEGANVDVTRVAALFHDIAKLEAEQDLHAEAGARIAREYLRAHGDYPESFIEQVCSAVEVHSYQGSLDDLPLEVQCLIEADILDKVGANGTALMLLRMGYESRTHMDAAEMVDRVIERGEDARERVQSDTAESLVHQRLKRTRWFQEWLTMEVAEMAVEDDLDDVATGMGDSLEHHHHHH | soluble |
| MKEILDHYGSLLSRIDDWFRACLDSSGDRIRCADGCSDCCRGLFDITLLDAAFLRRGFDRLDPEVREQVLVRCRERIAILRLVWPEFDQPFILNMRPDDEWEALMPDDDETPCPLLDRHGRCLVYEHRPMTCRLHGLPLVDVSGEIMHDEWCTLNCIDADPLADPALRGDFDRIFTEEVRLIRTFAGRLLGHPLSEVDTFIPTALVIAFDSINWLSWGNRLAALSLSDPRSKLEHHHHHH | not soluble |
| MKETIIVVHERPDIYDPVFIEGLPGIGLVGKLAAEHLIQELKAKKFAELYSPHFMHQVLIRKGSIVELMKNEFYYWKSPDDEHRDLIIVTGDTQVPPTDSYGHFEVAGKMLDFVQEFGTREIITMGGYQVPELQGEPRVLAAVTHPDLISYYQEKLKDCKVNVMWREDEGGAIVGAAGLLLGIGKLRGMFGISLLGESLGYIVDAKAAKAVLTAVAKILGLEIDMTALEERAKETEEILRKVEEMQRTIMEQQLPRPTHEEEDRGYL | not soluble |
| MKFAVSSKGDQVSDTLKSKIQAYLLDFDMELDENEPEIVISVGGDGTLLYAFHRYSDRLDKTAFVGVHTGHLGFYADWVPHEIEKLVLAIAKTPYHTVEYPLLEVIVTYHENEREERYLALNECTIKSIEGSLVADVEIKGQLFETFRGDGLCLSTPSGSTAYNKALGGAIIHPSIRAIQLAEMASINNRVFRTVGSPLLLPSHHDCMIKPRNEVDFQVTIDHLTLLHKDVKSIRCQVASEKVRFARFRPFPFWKRVQDSFIGKGELEHHHHHH | soluble |
| MKFEGIYTPAITPLSADGSIDTQAFAEVLEFLVESKVHGIVIGGSTGEYYAHTAEERLALAAHASEVIAGRLPLVVGTGAIRTEDSLAYAEAARAIGADAILVGSPPYALPTSREIAEHVLAVDRAAGLPIMLYNYPARMGVEMDEAFFAAVAGCRNIVAIKESSGSTAQLHRLACRHPRIALSCGWDDQALEFFAWGARSWVCAGSNFIPGEHLALYQACVVENDFAKGRRIMAAMMPLMDFLESGHFVQSIKHGCELAGLRAGGVRAPLKALDEAGKAALAEIVARLKGEVAR | not soluble |
| MKFGPIAIEEAEGAVLAHSTTAGEKRFRKAHRLSAEDISVLKRAGIVQVVAAVLSPDDLGEDAAAQRIAESMRFSGIEARPAATGRVNLHAKASGIFTVDAAMIDAINAVDPAITLATLAQHAPVEKGQMVATVKIIPFAVASTLVDTVVKICAGGEILAVNAYQPVRVGVIQTVLPGIKPSVLDKTLRVTEARLARSGGRLTAERRTPHEIAPVAEAAASLARDNDLVVIFGASAMSDFADVVPAAIERAGGTVVRAGMPVDPGNLLVLGTLGGKRIIGAPGCARSPKENGFDWVLDRLVAGLDVTAKDIAGMGVGGLLMEIPTRPQPREPLPAKSRLKVGIVLLAAGRSSRMGGPNKLLALFDGKPLVRRTAERALGSKASGTIVVTGHQRERVRAALSGLDVTFADNPDFANGLSTSLKAGIAYLPEDTAGAMIVLGDMPGVVSGDLDRLIDAFRKAGGNSVVRASHQGKRGNPVLLPRALFPAIAHLEGDTGARHLVEAEGLDVVDVEIGEGASVDVDTREALEGAGGVLQDLEHHHHHH | not soluble |
| MKFINIVGTTASGKTTFARQLALKLNLTHIEMDDLFWLDGWQETPDDEFFLKLKNKMDIAKDGWVLDGNYSRTLHLKLDKLDTMIWLDYSFTLNFYRSVKRAISRIITKEPLWENSNNYESFKQSFLSKNSIILWMINHYAKNRKKYLNMMHDPQYRHIQFIRLTSPKQAKVFLDSL | not soluble |
| MKFYNREKELNYLKTYCQLDPNSILFVYGPKSSGKSTVMRRVIKELEDSNIVFFYYNLRKYATYSKEEFLRVFFEKSEKKYLLNKLELNLGVFKFGVEENFDFNNLKLNDVFAKINESINAVVEDGKKPVLIIDELQKLKNIYFNGGKSLLNELFNLFVSLTKMEHLCHVICLTSDTLFIEEIYQSSTLENTSKYYLIDWLRKGTIRNILKEEGFSEEEINYCLDYLSLPYEIVDLIENKKLGLSVEETIRQWINIEKDKIKYLIDTTDLDEEELYKVLSKFKDKIKISYEKEVKKEEMKYFKFLIKNEILFYDVINGIIKPTSVKKWYAIREILK | not soluble |
| MKGTQMLALNKKCWDIVAPYFFQVDCLPKYGPYTASEDEIHLFDSIKGKKVLDIGCGSGHSLQYMAEHGAEELWGLDLSSTQIETAHETLQSWNPKLICGAMEEERDIPKGYFDIVYSIYALGWTSDLRKTLELIYSYVKPGGSFIFSWEHPVYSNLMYGTEEIAFSSSYHEETPITFETFKGEDVQATLYKRKMSTYINELNRVGFTIERIEEPLEHHHHHH | not soluble |
| MKGVSRHVFVRIVQAIIMKHLVYCFKLDNDEFNLKNKYKKYKPCVTRVYDDLNTIYRYISNNKIINLEHHHHHH | not soluble |
| MKGYQSLVFNFFFLKLSAENESTPIQQLLEHFLRQLQRKDPHGFFAFPVTDAIAPGYSMIIKHPMDFGTMKDKIVANEYKSVTEFKADFKLMCDNAMTYNRPDTVYYKLAKKILHAGFKMMSKERLLALKRSMSFMQDMDFSQQAALLGNEDTAVEEPVPEVVPVQVETAKKSKKPSREVISCMFEPEGNACSLTDSTAEEHVLALVEHAADEARDRINRFLPGGKMGYLKRNGDGSLLYSVVNTAEPDADEEETHPVDLSSLSSKLLPGFTTLGFKDERRNKVTFLSSATTALSMQNNSVFGDLKSDEMELLYSAYGDETGVQCALSLQEFVKDAGSYSKKVVDDLLDQITGGDHSRTLFQLKQRRNVPMKPPDEAKVGDTLGDSSSSVLEFMSMKSYPDVSVDISMLSSLGKVKKELDPDDSHLNLDETTKLLQDLHEAQAERGGSRPSSNLSSLSNASERDQHHLGSPSRLSVGEQPDVTHDPYEFLQSPEPAASAKT | soluble |
